From publication PMC4503349

Target: Recombinant human calcineurin, comprising CnAα and CnB subunits (human) (UniProt Q08209)

Substance: calmodulin (from UniProt P0DP23 1-149) (natural protein)
- CaN phosphatase activity (malachite green, RIIP substrate) in a Ca2+/CM cross-titration; CaN:CM ratio that gives 50% activation at 500 μM Ca2+ (molar ratio (CaN:CM)): 1
